Test results from US10064928B2, “Peptides and combination of peptides for use in immunotherapy against CLL and other cancers” (IMMATICS BIOTECHNOLOGIES GMBH, priority 2015, dated 2018).

Target: HLA-A*02:01 (Homo sapiens, UniProt P04439, D140Y/D185E/D98H/E176V/E277Q/G131W/G231S/I119V/I121R/I166T/I218V/L300P/L318F/N151K/N90K/P208A/P217A/Q86G/Q94H/R138H/R169H/T345S)
Test: MHC binding assay (UV-ligand exchange, beta2m ELISA)
Conditions: binding of HLA-class I restricted peptides to HLA-A*02:01, β2m ELISA
Excerpt: Candidate peptides for T cell based therapies according to the present invention were further tested for their MHC binding capacity (affinity). The individual peptide-MHC complexes were produced by UV-ligand exchange, where a UV-sensitive peptide is cleaved upon UV-irradiation, and exchanged with the peptide of interest as analyzed. Only peptide candidates that can effectively bind and stabilize the peptide-receptive MHC molecules prevent dissociation of the MHC complexes. To determine the yield of the exchange reaction, an ELISA was performed based on the detection of the light chain (β2m) of stabilized MHC complexes. The assay was performed as generally described in Rodenko et al. (Rodenko et al., 2006).
96 well MAXISorp plates (NUNC) were coated over night with 2 ug/ml streptavidin in PBS at room temperature, washed 4× and blocked for 1 h at 37° C. in 2% BSA containing blocking buffer. Refolded HLA-A*02:01/MLA-001 monomers served as standards, covering the range of 15-500 ng/ml. Peptide-MHC monomers of the UV-exchange reaction were diluted 100 fold in blocking buffer. Samples were incubated for 1 h at 37° C., washed four times, incubated with 2 ug/ml HRP conjugated anti-β2m for 1 h at 37° C., washed again and detected with TMB solution that is stopped with […]. Absorption was measured at 450 nm. Candidate peptides that show a high exchange yield (preferably higher than 50%, most preferred higher than 75%) are generally preferred for a generation and production of antibodies or fragments thereof, and/or T cell receptors or fragments thereof, as they show sufficient avidity to the MHC molecules and prevent dissociation of the MHC complexes.

| Substance | Peptide Exchange (MHC class I binding score, peptide exchange yield) |
| --- | --- |
| 113 (KVPAEEVLVAV; listed as Homo sapiens) [compound 113] | “+++” (≥50 = +++) |
| 189 (VMLEMTPEL; listed as Homo sapiens) [compound 189] | “+++” (≥50 = +++) |
| 172 (TLYDMLASI; listed as Homo sapiens) [compound 172] | “+++” (≥50 = +++) |
| 55 (FMEPTLLML; listed as Homo sapiens) [compound 55] | “+++” (≥50 = +++) |
| 131 (LQALEVLKI; listed as Homo sapiens) [compound 131] | “+” (≥10% = +) |
| 109 (KLWEGLTELV; listed as Homo sapiens) [compound 109] | “+++” (≥50 = +++) |
| 79 (GLQAKIQEA; listed as Homo sapiens) [compound 79] | “+++” (≥50 = +++) |
| 187 (VMDTHLVNI; listed as Homo sapiens) [compound 187] | “++++” (≥75% = ++++) |
| 147 (SILETVATL; listed as Homo sapiens) [compound 147] | “+++” (≥50 = +++) |
| 107 (ILYNLYDLL; listed as Homo sapiens) [compound 107] | “+++” (≥50 = +++) |
| 73 (GLLEVISALQL; listed as Homo sapiens) [compound 73] | “+++” (≥50 = +++) |
| 3 (VIAELPPKV; listed as Homo sapiens) [compound 3] | “++” (≥20% = ++) |
| 8 (ALAASALPALV; listed as Homo sapiens) [compound 8] | “+++” (≥50 = +++) |
| 24 (AMAGDVVYA; listed as Homo sapiens) [compound 24] | “+++” (≥50 = +++) |
| 68 (GLDQQFAGLDL; listed as Homo sapiens) [compound 68] | “+” (≥10% = +) |
| 171 (TLVPPAALISI; listed as Homo sapiens) [compound 171] | “+++” (≥50 = +++) |

| Substance | Peptide Exchange (MHC class I binding score, peptide exchange yield) |
| --- | --- |
| 153 (SLLAELHVL; listed as Homo sapiens) [compound 153] | “+++” (≥50 = +++) |
| 141 (QILSEIVEA; listed as Homo sapiens) [compound 141] | “++” (≥20% = ++) |
| 159 (SLQEEKLIYV; listed as Homo sapiens) [compound 159] | “+++” (≥50 = +++) |
| 120 (AIDAALTSV; listed as Homo sapiens) [compound 120] | “+++” (≥50 = +++) |
| 133 (YLLSGDISEA; listed as Homo sapiens) [compound 133] | “+++” (≥50 = +++) |
| 118 (RLLILENILL; listed as Homo sapiens) [compound 118] | “+++” (≥50 = +++) |
| 34 (YLPYIFPNI; listed as Homo sapiens) [compound 34] | “+++” (≥50 = +++) |
| 41 (FLDPSLDPLL; listed as Homo sapiens) [compound 41] | “+++” (≥50 = +++) |
| 23 (ALYLTEVFL; listed as Homo sapiens) [compound 23] | “++++” (≥75% = ++++) |
| 168 (YLLDQSFVM; listed as Homo sapiens) [compound 168] | “++++” (≥75% = ++++) |
| 88 (ILDEIGADVQA; listed as Homo sapiens) [compound 88] | “+++” (≥50 = +++) |
| 170 (TLTFRVETV; listed as Homo sapiens) [compound 170] | “+++” (≥50 = +++) |
| 28 (AVLHLLLSV; listed as Homo sapiens) [compound 28] | “++” (≥20% = ++) |
| 40 (FLDEDDMSL; listed as Homo sapiens) [compound 40] | “++” (≥20% = ++) |
| 67 (GLDDVTVEV; listed as Homo sapiens) [compound 67] | “++” (≥20% = ++) |
| 72 (GLLDAGKMYV; listed as Homo sapiens) [compound 72] | “+++” (≥50 = +++) |

Now from value to substance:

| Peptide Exchange (MHC class I binding score, peptide exchange yield) | Substance |
| --- | --- |
| “+++” (≥50 = +++) | 193 (YLDLSNNRL; listed as Homo sapiens) [compound 193] |
| “+++” (≥50 = +++) | 286 (FLLEDLSQKL; listed as Homo sapiens) [compound 286] |
| “+++” (≥50 = +++) | 272 (VLDELPPLI; listed as Homo sapiens) [compound 272] |
| “+++” (≥50 = +++) | 219 (ALLNLLESA; listed as Homo sapiens) [compound 219] |
| “+++” (≥50 = +++) | 342 (SLITPLQAV; listed as Homo sapiens) [compound 342] |
| “+” (≥10% = +) | 304 (LAIVPVNTL; listed as Homo sapiens) [compound 304] |
| “++++” (≥75% = ++++) | 336 (YMAVTTQEV; listed as Homo sapiens) [compound 336] |
| “++++” (≥75% = ++++) | 232 (FMHQIIDQV; listed as Homo sapiens) [compound 232] |
| “++” (≥20% = ++) | 248 (KTVEPPISQV; listed as Homo sapiens) [compound 248] |
| “++” (≥20% = ++) | 234 (GLDDAEYAL; listed as Homo sapiens) [compound 234] |
| “+++” (≥50 = +++) | 355 (FIWPMLIHI; listed as Homo sapiens) [compound 355] |
| “+++” (≥50 = +++) | 335 (YLYQEQYFI; listed as Homo sapiens) [compound 335] |
| “++++” (≥75% = ++++) | 287 (FLWEEKFNSL; listed as Homo sapiens) [compound 287] |
| “+++” (≥50 = +++) | 341 (LLAELPASVHA; listed as Homo sapiens) [compound 341] |
| “+++” (≥50 = +++) | 217 (ALDEPPYLTV; listed as Homo sapiens) [compound 217] |
| “+++” (≥50 = +++) | 324 (SLYSALQQA; listed as Homo sapiens) [compound 324] |
| “+++” (≥50 = +++) | 300 (ILLNPAYDVYL; listed as Homo sapiens) [compound 300] |
| “++++” (≥75% = ++++) | 326 (VLAFLVHEL; listed as Homo sapiens) [compound 326] |
| “+++” (≥50 = +++) | 316 (MLLEHGITL; listed as Homo sapiens) [compound 316] |
| “+++” (≥50 = +++) | 379 (YLAELVTPIL; listed as Homo sapiens) [compound 379] |
| “+++” (≥50 = +++) | 313 (LMADLEGLHL; listed as Homo sapiens) [compound 313] |
| “+++” (≥50 = +++) | 376 (VLYNQRVEEI; listed as Homo sapiens) [compound 376] |
| “+++” (≥50 = +++) | 288 (GLAESTGLLAV; listed as Homo sapiens) [compound 288] |
| “++++” (≥75% = ++++) | 383 (YLLREWVNL; listed as Homo sapiens) [compound 383] |
| “++++” (≥75% = ++++) | 340 (KLLEEICNL; listed as Homo sapiens) [compound 340] |
| “+++” (≥50 = +++) | 226 (AMNISVPQV; listed as Homo sapiens) [compound 226] |
| “+++” (≥50 = +++) | 216 (WLAGDVPAA; listed as Homo sapiens) [compound 216] |
| “+++” (≥50 = +++) | 227 (FLAEASVMTQL; listed as Homo sapiens) [compound 227] |
| “++” (≥20% = ++) | 233 (GIIDINVRL; listed as Homo sapiens) [compound 233] |
